Here are results for 2 proteins from paper PMC10922747 (Cell, 2024).

Data set [1] deals with the molecule itself. As to the kind of experiment: negative-stain EM.
Data set [2] concerns the molecule itself. The data set is described as follows: cryo-EM structure.

B1: human PNMA2 (hPNMA2) protein (full length) (natural protein, UniProt Q9UL42 1-364, looked up)
chain: MALALLEDWCRIMSVDEQKSLMVTGIPADFEEAEIQEVLQETLKSLGRYRLLGKIFRKQENANAVLLELLEDTDVSAIPSEVQGKGGVWKVIFKTPNQDTEFLERLNLFLEKEGQTVSGMFRALGQEGVSPATVPCISPELLAHLLGQAMAHAPQPLLPMRYRKLRVFSGSAVPAPEEESFEVWLEQATEIVKEWPVTEAEKKRWLAESLRGPALDLMHIVQADNPSISVEECLEAFKQVFGSLESRRTAQVRYLKTYQEEGEKVSAYVLRLETLLRRAVEKRAIPRRIADQVRLEQVMAGATLNQMLWCRLRELKDQGPPPSFLELMKVIREEEEEEASFENESIEEPEERDGYGRWNHEGDD
On to B1, for which the binding result in data set [1] is on record as “binds”.

B2: mouse PNMA2 (mPNMA2) protein (full length) (natural protein, UniProt Q8BHK0 1-365, looked up)
chain: MAVALLEEWCKIMGVDVQKSLLVVDIPVDCGEPEIQTVLQEALKCVGSYRLLGKIFQKQDNTSVVLVELMEDTDMSVVPSEVQGKGGVWKVIFKTPNQDTEFLQRLNLFLEKEGQTVAGMFRALKHEGVSPATPPCTSPELLAHLTGQAMVHGQRPLLPVKYCKMRIFSGSTAAAPEEEPFEVWLEQATEIAKEWPIPEAEKKRWVAESLRGPALDLMHIVQADNPSISVGECLEAFKQVFGSTESRRTSQVKYLRTYQQEGEKISAYVLRLETLLRRAVEKRAIPRNIADQVRLEQVMAGANLGNVLWCRLQELKDQGPLPTFLQLMKVIREEEEEEDAYFEQESREEPGEREGSGCWNNSRNN
For B2, the “stoichiometry N” value in data set [2] was determined as 60.
